# Assay results published in article PMC11194070, “Despite the odds: formation of the SARS-CoV-2 methylation complex” (Nucleic Acids Research, 2024).
# Target: T1, SARS-CoV-2 nonstructural protein 10 (nsp10) (SARS-CoV-2, UniProt P0DTD1 4254-4392)
# T1 construct: also called 2H15N-nsp10; apo-nsp10
# Assay: MST
# Conditions: both partners purified
binder,measurement,value
"nsp14ExoN, nsp14 without the methyltransferase domain but retaining the exonuclease activity (domain or fragment) AENVTGLFKDCSKVITGLHPTQAPTHLSVDTKFKTEGLCVDIPGIPKDMTYRRLISMMGFKMNYQVNGYPNMFITREEAIRHVRAWIGFDVEGCHATREAVGTNLPLQLGFSTGVNLVAVPTGYVDTPNNTDFSRVSAKPPPGDQFKHLIPLMYKGLPWNVVRIKIVQMLSDTLKNLSDRVVFVLWAHGFELTSMKYFVKIGPERTCCLCDRRATCFSTASDTYACWHHSIGFDYVYNPFMIDVQQWGFTGNLQSNHDLYCQVHGNAHVASCDAIMTRCLAVHECFVKRVDWTIE",Kd,4.55 ± 2.68 µM
